Measured values reported in US20260199576A1 (KYOTO UNIVERSITY, published 2026).

How the values were obtained:
[1] = target: Integrin αvβ5 (ACRO Biosystems, IT5-H52W5) (UniProt P06756 31-992; P18084 24-719); experiment: adsorption test: UC antibody 1 150 ng, His-tagged integrin 5 or 25 µg/mL and anti-His-tag magnetic agarose; remaining antibody measured by ELISA, adsorption rate
Experimental: (§1) The concentration of anti-integrin αvβ6 antibodies contained in the recovered solution was measured by ELISA. A microtiter plate was coated with 100 μL/well of 2 μg/mL integrin αvβ6 overnight at 4° C., followed by washing and blocking. After washing, the recovered reaction solution was diluted 10-fold and added at 100 µL/well to the plate, and the plate was incubated at room temperature for 60 minutes. After washing, an HRP-labeled anti-human IgG antibody (50,000-fold dilution; ab6759; Abcam) was added at 100 μL/well to the plate, and the plate was incubated at room temperature for 60 minutes. After washing, the plate was incubated with 3,3′,5,5′-tetramethylbenzidine for 7 minutes, and the absorbance density (OD value) at 450 nm was measured to detect human IgG bound to integrin αvβ6 on the solid phase.
(§2) Anti-histidine tag antibody-labeled magnetic agarose (MBL, D291-10) in the amount of 10 μL (5 μg of anti-his tag antibody), 150 ng of the monoclonal autoantibody derived from an ulcerative colitis patient prepared in Example 2 (UC antibody 1 shown in Table 1), and 5 μg/mL or 25 μg/mL of any of integrins as mentioned below were mixed and reacted by inversion mixing in a total of 500 μL of solution at 4° C. for 12 hours. The solution after the reaction was recovered. As a control, a mixture to which no integrin was added (a mixture of the above-mentioned agarose and autoantibody only) was used to perform the similar reaction. [0157] Integrin αvβ1 (ACRO Biosystems, IT1-H82W6) [0158] Integrin αvβ3 (ACRO Biosystems, IT3-H52E3) [0159] Integrin αvβ5 (ACRO Biosystems, IT5-H52W5) [0160] Integrin αvβ6 (ACRO Biosystems, IT6-H52E1) [0161] Integrin αvβ8 (ACRO Biosystems, IT8-H52W4)
(§3) In the same manner as described in Example 7, the concentration of anti-integrin αvβ6 antibody contained in the recovered solution was determined, and the adsorption rate of anti-integrin αvβ6 antibody in the antibody adsorption reaction was calculated.

[2] = target: Integrin αvβ1 (ACRO Biosystems, IT1-H82W6) (UniProt P06756 31-992; P05556 21-728); experiment: as above
Experimental: as §1, §2, §3

[3] = target: Integrin αvβ8 (ACRO Biosystems, IT8-H52W4) (UniProt P06756 31-992; P26012 43-684); experiment: as above
Experimental: as §1, §2, §3

[4] = target: Integrin αvβ3 (ACRO Biosystems, IT3-H52E3) (UniProt P06756 31-992; P05106 27-718); experiment: as above
Experimental: as §1, §2, §3

[5] = target: T1, human integrin αvβ6 (ACROBiosystems, product number IT6-H52E1) (human, UniProt P06756 31-992; P18564 22-707); experiment: blocking ELISA: integrin αvβ6 coated, antibody added, then fibronectin 2 µg/mL; bound fibronectin detected, inhibition effect (%)
T1 construct: also called histidine-tagged integrin αvβ6; histidine-tagged extracellular domain protein of integrin αvβ6; not shown: linker and basic tail on the β6 chain
Experimental: Furthermore, a competitive assay with fibronectin for binding to integrin αvβ6 was performed to confirm the function of the obtained monoclonal antibodies. Briefly, a 96-well microtiter plate was coated with 150 μL/well of 2 μg/mL human integrin αvβ6 (ACROBiosystems, Cat. No. IT6-H52E1) overnight at 4° C., then blocked and incubated with 120 μL of monoclonal antibodies (0.0001-10 μg/mL) for 60 min at room temperature. After washing, the plate was incubated with 100 μL of 2 μg/mL fibronectin (FC010; MilliporeSigma, Burlington, MA) for 60 minutes at room temperature. After washing, an anti-fibronectin antibody (1:5000 dilution; ab2413; Abcam) was added to the plate, and the plate was incubated for 60 min at room temperature. […] After washing, the plate was incubated with 3,3′,5,5′-tetramethylbenzidine for 10 minutes, and the absorbance at 450 nm was measured to detect fibronectin bound to integrin αvβ6 on the solid phase. […] To calculate the binding inhibition rate, blank wells coated with integrin αvβ6 were incubated with fibronectin in the absence of antibody, and the optical density (OD) at 450 nm was measured in the same manner as above. The binding inhibition rate (%) was calculated according to the following formula. […]

[6] = target: T2, Biotinylated human integrin αvβ6 (ACROBiosystems, product number IT6-H82E4) (human, UniProt P06756 31-992; P18564 22-707, biotinylated (Avi tag at the C-terminus) ; Biotin on the Avi tag at the C-terminus of the αv chain; the tag is not in the letters.); experiment: BLI (Octet RED96), biotinylated integrin αvβ6 on biosensor, antibody in solution
T2 construct: Bought heterodimer; also called biotinylated integrin αvβ6; not shown: basic tail on the β6 chain
Experimental: Next, the binding affinity of the obtained anti-integrin αvβ6 monoclonal antibodies derived from UC or PSC patients was determined. The KD value was measured by biolayer interferometry using Octet RED96 (Sartorius). A 100 nM solution of the antibody, and serially diluted solutions of biotinylated integrin αvβ6 protein in the range of 200 to 6.25 nM were prepared using a buffer containing 20 mM Tris, 150 mM NaCl, 1 mM CaCl₂, 1 mM MgCl₂, 0.1% human serum albumin (014-27604; Fujifilm Wako Pure Chemical Industries, Ltd.) and 0.02% Tween 20 (1610781; Bio-Rad), and added to a 96-well plate (Greiner; 655209) at 200 μL/well. The biotinylated integrin αvβ6 was allowed to bind for 5 minutes to a biosensor (18-5136; Sartorius) soaked in the buffer. After washing of the biosensor, the biosensor was immersed in each antibody solution for 5 minutes (binding reaction). Then, the sensor was immersed in the buffer solution for 1 minute (dissociation reaction). The binding dissociation constant (KD value) between “integrin αvβ6-each monoclonal antibody” was determined using the analysis software (Octet BLI Analysis) attached to the device.

T1 sequence (P06756 31-992 limits assumed, chain 1 of 2): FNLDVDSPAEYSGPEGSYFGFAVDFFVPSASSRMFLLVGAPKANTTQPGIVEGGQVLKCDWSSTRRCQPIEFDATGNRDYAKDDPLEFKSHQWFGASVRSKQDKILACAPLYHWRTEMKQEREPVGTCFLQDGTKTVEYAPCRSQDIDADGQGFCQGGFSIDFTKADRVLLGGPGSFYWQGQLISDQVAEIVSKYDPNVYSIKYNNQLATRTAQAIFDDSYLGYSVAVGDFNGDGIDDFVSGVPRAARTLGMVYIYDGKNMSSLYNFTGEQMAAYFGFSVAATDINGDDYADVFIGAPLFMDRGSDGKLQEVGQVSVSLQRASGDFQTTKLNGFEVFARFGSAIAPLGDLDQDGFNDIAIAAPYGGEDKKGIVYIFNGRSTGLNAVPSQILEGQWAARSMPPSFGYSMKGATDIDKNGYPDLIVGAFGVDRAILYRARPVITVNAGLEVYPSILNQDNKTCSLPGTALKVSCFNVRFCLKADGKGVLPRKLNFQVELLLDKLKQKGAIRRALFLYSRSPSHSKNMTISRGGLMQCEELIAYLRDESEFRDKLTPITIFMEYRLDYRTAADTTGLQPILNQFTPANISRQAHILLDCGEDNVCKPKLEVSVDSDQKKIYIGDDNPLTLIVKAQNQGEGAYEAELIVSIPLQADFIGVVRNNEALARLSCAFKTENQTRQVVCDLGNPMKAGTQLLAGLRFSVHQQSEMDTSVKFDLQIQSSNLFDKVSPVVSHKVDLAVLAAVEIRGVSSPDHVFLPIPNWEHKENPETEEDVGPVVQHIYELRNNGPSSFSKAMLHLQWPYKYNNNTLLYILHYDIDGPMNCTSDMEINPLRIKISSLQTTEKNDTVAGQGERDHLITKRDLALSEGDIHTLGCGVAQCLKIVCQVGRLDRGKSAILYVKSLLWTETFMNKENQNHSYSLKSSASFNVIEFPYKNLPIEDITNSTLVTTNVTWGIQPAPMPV
T1 sequence (P18564 22-707 limits assumed, chain 2 of 2): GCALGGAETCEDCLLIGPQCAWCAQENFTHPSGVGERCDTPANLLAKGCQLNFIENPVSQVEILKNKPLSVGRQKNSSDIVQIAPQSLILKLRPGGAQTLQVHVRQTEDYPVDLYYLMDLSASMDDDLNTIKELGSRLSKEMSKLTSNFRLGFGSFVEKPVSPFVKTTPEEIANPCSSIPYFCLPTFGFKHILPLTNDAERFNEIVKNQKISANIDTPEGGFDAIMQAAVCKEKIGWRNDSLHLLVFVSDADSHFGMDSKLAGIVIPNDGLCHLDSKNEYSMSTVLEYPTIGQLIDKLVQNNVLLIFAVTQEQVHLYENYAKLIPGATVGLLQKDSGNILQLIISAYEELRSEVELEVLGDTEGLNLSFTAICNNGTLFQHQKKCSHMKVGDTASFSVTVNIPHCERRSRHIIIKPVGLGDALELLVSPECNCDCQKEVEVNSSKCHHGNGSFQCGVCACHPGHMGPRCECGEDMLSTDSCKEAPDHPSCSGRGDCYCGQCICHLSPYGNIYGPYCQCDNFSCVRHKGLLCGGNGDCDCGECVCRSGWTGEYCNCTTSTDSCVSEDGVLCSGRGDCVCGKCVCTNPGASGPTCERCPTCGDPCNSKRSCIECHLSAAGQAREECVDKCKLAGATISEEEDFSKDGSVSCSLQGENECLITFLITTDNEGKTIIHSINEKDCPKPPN
Chain of Integrin αvβ5 (ACRO Biosystems, IT5-H52W5) (P06756 31-992, chain 1 of 2): as the sequence (P06756 31-992 limits assumed, chain 1 of 2) above
Chain of Integrin αvβ5 (ACRO Biosystems, IT5-H52W5) (P18084 24-719, chain 2 of 2): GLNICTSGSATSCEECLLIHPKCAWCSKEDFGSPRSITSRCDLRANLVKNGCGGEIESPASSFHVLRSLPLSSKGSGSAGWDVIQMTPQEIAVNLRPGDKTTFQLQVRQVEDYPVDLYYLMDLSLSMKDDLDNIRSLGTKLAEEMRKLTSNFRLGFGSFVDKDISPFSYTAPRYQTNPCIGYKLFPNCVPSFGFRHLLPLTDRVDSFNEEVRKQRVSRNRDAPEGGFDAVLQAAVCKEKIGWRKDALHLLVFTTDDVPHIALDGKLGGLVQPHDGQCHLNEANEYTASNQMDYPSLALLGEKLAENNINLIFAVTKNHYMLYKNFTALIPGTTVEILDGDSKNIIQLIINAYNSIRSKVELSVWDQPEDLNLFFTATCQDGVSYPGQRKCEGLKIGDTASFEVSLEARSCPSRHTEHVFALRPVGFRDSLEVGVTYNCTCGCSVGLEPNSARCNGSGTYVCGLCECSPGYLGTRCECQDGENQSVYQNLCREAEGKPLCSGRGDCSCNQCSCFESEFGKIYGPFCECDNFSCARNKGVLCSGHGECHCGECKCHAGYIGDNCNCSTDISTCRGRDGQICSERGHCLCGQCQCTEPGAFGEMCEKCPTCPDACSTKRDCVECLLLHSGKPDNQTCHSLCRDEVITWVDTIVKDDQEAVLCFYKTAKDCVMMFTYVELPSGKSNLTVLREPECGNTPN
Chain of Integrin αvβ1 (ACRO Biosystems, IT1-H82W6) (P06756 31-992, chain 1 of 2): as the sequence (P06756 31-992 limits assumed, chain 1 of 2) above
Chain of Integrin αvβ1 (ACRO Biosystems, IT1-H82W6) (P05556 21-728, chain 2 of 2): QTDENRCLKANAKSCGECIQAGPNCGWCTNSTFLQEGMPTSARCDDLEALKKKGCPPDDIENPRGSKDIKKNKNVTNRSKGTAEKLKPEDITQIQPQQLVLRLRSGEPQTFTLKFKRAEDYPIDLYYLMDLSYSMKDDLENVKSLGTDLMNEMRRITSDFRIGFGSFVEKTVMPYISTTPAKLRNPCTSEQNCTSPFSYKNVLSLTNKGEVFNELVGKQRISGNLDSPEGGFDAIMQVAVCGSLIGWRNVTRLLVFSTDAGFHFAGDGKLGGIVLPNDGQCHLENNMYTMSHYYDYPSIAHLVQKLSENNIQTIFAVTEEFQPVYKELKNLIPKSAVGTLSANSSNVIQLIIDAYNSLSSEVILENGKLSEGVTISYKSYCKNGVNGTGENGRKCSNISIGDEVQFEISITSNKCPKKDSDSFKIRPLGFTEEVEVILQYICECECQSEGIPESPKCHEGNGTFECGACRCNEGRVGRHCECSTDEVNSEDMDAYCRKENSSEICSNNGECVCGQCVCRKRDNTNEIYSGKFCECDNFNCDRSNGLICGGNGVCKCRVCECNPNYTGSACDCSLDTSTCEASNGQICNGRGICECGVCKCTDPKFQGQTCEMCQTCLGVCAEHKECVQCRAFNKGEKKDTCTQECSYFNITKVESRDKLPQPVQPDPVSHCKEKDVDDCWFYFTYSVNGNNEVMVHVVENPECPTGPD
Chain of Integrin αvβ3 (ACRO Biosystems, IT3-H52E3) (P06756 31-992, chain 1 of 2): as the sequence (P06756 31-992 limits assumed, chain 1 of 2) above
Chain of Integrin αvβ3 (ACRO Biosystems, IT3-H52E3) (P05106 27-718, chain 2 of 2): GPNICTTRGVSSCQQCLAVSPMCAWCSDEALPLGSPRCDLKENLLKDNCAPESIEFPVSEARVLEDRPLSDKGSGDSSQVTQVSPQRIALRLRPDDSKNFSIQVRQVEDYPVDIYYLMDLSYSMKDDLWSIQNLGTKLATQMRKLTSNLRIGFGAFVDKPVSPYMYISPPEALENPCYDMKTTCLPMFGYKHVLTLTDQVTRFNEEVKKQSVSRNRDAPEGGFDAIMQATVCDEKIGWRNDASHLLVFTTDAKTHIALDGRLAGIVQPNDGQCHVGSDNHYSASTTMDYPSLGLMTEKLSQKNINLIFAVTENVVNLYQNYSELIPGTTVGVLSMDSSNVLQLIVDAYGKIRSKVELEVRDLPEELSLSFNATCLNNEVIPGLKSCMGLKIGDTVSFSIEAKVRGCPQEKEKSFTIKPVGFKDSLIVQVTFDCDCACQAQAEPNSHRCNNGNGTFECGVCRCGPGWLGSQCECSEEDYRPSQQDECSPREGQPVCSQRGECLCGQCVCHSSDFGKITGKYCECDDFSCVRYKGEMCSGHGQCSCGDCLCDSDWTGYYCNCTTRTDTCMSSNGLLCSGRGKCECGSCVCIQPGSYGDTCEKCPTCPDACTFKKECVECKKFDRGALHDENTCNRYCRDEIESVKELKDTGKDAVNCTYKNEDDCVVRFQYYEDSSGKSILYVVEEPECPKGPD
T2 sequence (P06756 31-992 limits assumed, chain 1 of 2): as the sequence (P06756 31-992 limits assumed, chain 1 of 2) above
T2 sequence (P18564 22-707 limits assumed, chain 2 of 2): as the sequence (P18564 22-707 limits assumed, chain 2 of 2) above
Chain of Integrin αvβ8 (ACRO Biosystems, IT8-H52W4) (P06756 31-992, chain 1 of 2): as the sequence (P06756 31-992 limits assumed, chain 1 of 2) above
Chain of Integrin αvβ8 (ACRO Biosystems, IT8-H52W4) (P26012 43-684, chain 2 of 2): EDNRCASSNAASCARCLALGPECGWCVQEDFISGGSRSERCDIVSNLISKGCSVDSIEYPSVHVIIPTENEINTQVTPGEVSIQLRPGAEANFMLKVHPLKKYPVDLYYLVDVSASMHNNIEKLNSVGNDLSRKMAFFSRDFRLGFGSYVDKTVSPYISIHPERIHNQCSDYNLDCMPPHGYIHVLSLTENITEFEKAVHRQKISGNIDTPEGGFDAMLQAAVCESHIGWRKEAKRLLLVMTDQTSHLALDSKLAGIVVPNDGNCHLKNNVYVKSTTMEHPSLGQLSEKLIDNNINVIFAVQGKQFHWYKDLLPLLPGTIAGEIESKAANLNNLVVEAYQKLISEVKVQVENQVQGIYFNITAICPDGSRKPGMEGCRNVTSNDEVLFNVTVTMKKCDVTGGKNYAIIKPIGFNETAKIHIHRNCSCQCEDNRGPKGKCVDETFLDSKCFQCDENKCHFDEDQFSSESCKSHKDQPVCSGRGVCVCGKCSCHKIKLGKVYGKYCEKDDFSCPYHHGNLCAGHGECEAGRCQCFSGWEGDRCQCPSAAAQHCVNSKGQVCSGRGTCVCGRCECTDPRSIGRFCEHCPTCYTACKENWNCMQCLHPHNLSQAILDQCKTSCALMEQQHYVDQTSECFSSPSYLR

B1: UC antibody 1 (antibody, V domains shown)
VH: QVQLVESGGGVVQPGRSLRLSCAASGFTFSSYGMHWVRQAPGKGLEWVAFISYDGINKYYADSVKGRFTISRDNSKDTLYLQMNSLRAEDTAVYYCAKVIPRIRGSGDKAGIKDYYYYGMDVWGQGTTVTVSS
VL: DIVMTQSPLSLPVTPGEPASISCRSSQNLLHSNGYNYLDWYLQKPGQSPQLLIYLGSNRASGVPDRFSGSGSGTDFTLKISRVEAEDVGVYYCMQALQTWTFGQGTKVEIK
notes: Human monoclonal IgG from a UC patient, expressed in CHO cells; also called monoclonal autoantibody derived from an ulcerative colitis patient; anti-integrin αvβ6 antibody (UC antibody 1)
binding result [1]: no binding (tested: 25 µg/mL) | binding result [2]: no binding (tested: 25 µg/mL) | binding result [3]: no binding (tested: 25 µg/mL) | binding result [4]: no binding (tested: 25 µg/mL) | IC50 (read off the curve) [5]: ~0.2 µg/mL | Kd [6]: 4.54 nM
